{"source": "the RNAGym collection of RNA variant scans (doi:10.1073/pnas.2313332121)", "parents": {"B1": {"name": "TPR t1 (parent)", "chain": "GACCAAUCUGCCCUCAGAGCUCGAGAACAUCUUCGGAUGCAGAGGAGGCAGGCUUCGGUGGCGCGAUAGCGCCAACGUCCUCAACCUCCAAUGCAUCCCACCACAUGAUGAUGCCUGAAGAGCCUUGGUUUUUUG"}}, "data": [{"variants_of": "B1", "experiment": "polymerase ribozyme fitness, log enrichment relative to wild type (log ratio); higher = more active; in vitro selection for triplet polymerase activity", "outline": "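Fitness measures genotype enrichment against wild-type enrichment on a logarithmic scale, with inverse-variance-weighted averaging of replicates. The logarithm is base 2, and genotypes were kept only with ≥10 input reads and ≥1 read per output in Illumina sequencing. The sequenced libraries came from one triplicate in vitro selection round, including frozen incubation at −7 °C, of PCR-built, transcribed mutant libraries of each subunit of a heterodimeric triplet polymerase ribozyme.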", "values": [{"variant": "G45U C56G G63C C101U", "polymerase ribozyme fitness (log ratio)": -5.92}, {"variant": "G45U C56U A121U", "polymerase ribozyme fitness (log ratio)": 0.651}, {"variant": "G45U C62A C89G U112A", "polymerase ribozyme fitness (log ratio)": -4.99}, {"variant": "G45U C62U U112G U126A G128A U130A", "polymerase ribozyme fitness (log ratio)": -3.11}, {"variant": "G45U C64U A121G", "polymerase ribozyme fitness (log ratio)": -0.662}, {"variant": "G45U C64U A121G G135A", "polymerase ribozyme fitness (log ratio)": 0.974}, {"variant": "G45U C64U C79G C114U", "polymerase ribozyme fitness (log ratio)": -5.29}, {"variant": "G45U C70A C115A G128U", "polymerase ribozyme fitness (log ratio)": -3.65}, {"variant": "G45U C70U A119U G127A", "polymerase ribozyme fitness (log ratio)": -3.74}, {"variant": "G45U C72A U87A A121C", "polymerase ribozyme fitness (log ratio)": 0.113}, {"variant": "G45U C72G G93A", "polymerase ribozyme fitness (log ratio)": -2.7}, {"variant": "G45U C76G U112A A121U", "polymerase ribozyme fitness (log ratio)": 0.648}, {"variant": "G45U C82A C102U G122A", "polymerase ribozyme fitness (log ratio)": -3.36}, {"variant": "G45U C82U", "polymerase ribozyme fitness (log ratio)": -1.52}, {"variant": "G45U C85U", "polymerase ribozyme fitness (log ratio)": -2.01}, {"variant": "G45U C97A U112A", "polymerase ribozyme fitness (log ratio)": -5.81}, {"variant": "G45U C101A C102U", "polymerase ribozyme fitness (log ratio)": -5.42}, {"variant": "G45U C104A G110U A118C", "polymerase ribozyme fitness (log ratio)": -5.08}, {"variant": "G45U C104U A119G U130A", "polymerase ribozyme fitness (log ratio)": -1.09}, {"variant": "G45U C114A", "polymerase ribozyme fitness (log ratio)": -0.0443}, {"variant": "G45U C114G", "polymerase ribozyme fitness (log ratio)": -3.8}, {"variant": "G45U C114U A121U", "polymerase ribozyme fitness (log ratio)": -1.71}, {"variant": "G45U C124A", "polymerase ribozyme fitness (log ratio)": 0.716}, {"variant": "G45U C124G U133A", "polymerase ribozyme fitness (log ratio)": 0.519}, {"variant": "G45U G47C C85A C88U", "polymerase ribozyme fitness (log ratio)": -4.69}, {"variant": "G45U G48U A68C A74C A95G C97A C98U C104U G122U", "polymerase ribozyme fitness (log ratio)": -6.66}, {"variant": "G45U G51A C94G", "polymerase ribozyme fitness (log ratio)": -5.45}, {"variant": "G45U G52A C72U G110C C123U", "polymerase ribozyme fitness (log ratio)": -6.25}, {"variant": "G45U G52U G61C", "polymerase ribozyme fitness (log ratio)": -2.32}, {"variant": "G45U G57C G69U G110A U125A", "polymerase ribozyme fitness (log ratio)": -0.972}, {"variant": "G45U G57U C73G U78A C94A A119G", "polymerase ribozyme fitness (log ratio)": -0.559}, {"variant": "G45U G58A G77A C82A", "polymerase ribozyme fitness (log ratio)": -1.74}, {"variant": "G45U G60A C82G C85G G117A", "polymerase ribozyme fitness (log ratio)": -3.09}, {"variant": "G45U G60C C88G", "polymerase ribozyme fitness (log ratio)": -1.14}, {"variant": "G45U G61A C88U A90C G113A", "polymerase ribozyme fitness (log ratio)": -3}, {"variant": "G45U G69U A119U", "polymerase ribozyme fitness (log ratio)": -0.819}, {"variant": "G45U G77U U132C", "polymerase ribozyme fitness (log ratio)": -1.59}, {"variant": "G45U G110A", "polymerase ribozyme fitness (log ratio)": -2.13}, {"variant": "G45U G113U", "polymerase ribozyme fitness (log ratio)": -3.73}, {"variant": "G45U G120U", "polymerase ribozyme fitness (log ratio)": -0.652}, {"variant": "G45U U59A C101U", "polymerase ribozyme fitness (log ratio)": -0.987}, {"variant": "G45U U96C", "polymerase ribozyme fitness (log ratio)": -1.43}, {"variant": "G45U U116G", "polymerase ribozyme fitness (log ratio)": -3.76}, {"variant": "G45U U132A", "polymerase ribozyme fitness (log ratio)": -1.91}, {"variant": "A46C", "polymerase ribozyme fitness (log ratio)": -0.983}, {"variant": "A46C C49G C73U", "polymerase ribozyme fitness (log ratio)": -1.01}, {"variant": "A46C C56A A91U C97U", "polymerase ribozyme fitness (log ratio)": -3.95}, {"variant": "A46C C56A C73A A91U C97U", "polymerase ribozyme fitness (log ratio)": -4.49}, {"variant": "A46C C56A G110U", "polymerase ribozyme fitness (log ratio)": -2.45}, {"variant": "A46C C56U U78A A90G C94U A111C", "polymerase ribozyme fitness (log ratio)": 0.0877}, {"variant": "A46C C62U U106G", "polymerase ribozyme fitness (log ratio)": -2.88}, {"variant": "A46C C64A G69C C94A", "polymerase ribozyme fitness (log ratio)": -2.85}, {"variant": "A46C C72A U112C C124U", "polymerase ribozyme fitness (log ratio)": 1.22}, {"variant": "A46C C72G", "polymerase ribozyme fitness (log ratio)": -2.19}, {"variant": "A46C C72G G135U", "polymerase ribozyme fitness (log ratio)": -2.4}, {"variant": "A46C C72U U81A A105C", "polymerase ribozyme fitness (log ratio)": -4.47}, {"variant": "A46C C73G U87C", "polymerase ribozyme fitness (log ratio)": -1.35}, {"variant": "A46C C89A", "polymerase ribozyme fitness (log ratio)": -5.69}, {"variant": "A46C C89U", "polymerase ribozyme fitness (log ratio)": -0.611}, {"variant": "A46C C101G G120A", "polymerase ribozyme fitness (log ratio)": -2}, {"variant": "A46C C114U", "polymerase ribozyme fitness (log ratio)": -2.43}, {"variant": "A46C C115A", "polymerase ribozyme fitness (log ratio)": -1.52}, {"variant": "A46C G47A C53A U78C", "polymerase ribozyme fitness (log ratio)": -1.4}, {"variant": "A46C G48A G51A U87G C123A", "polymerase ribozyme fitness (log ratio)": -1.77}, {"variant": "A46C G51C", "polymerase ribozyme fitness (log ratio)": -4.63}, {"variant": "A46C G52U C88A G110A A118G U126C", "polymerase ribozyme fitness (log ratio)": -3.39}, {"variant": "A46C G60C A68U", "polymerase ribozyme fitness (log ratio)": -7.2}, {"variant": "A46C G60U", "polymerase ribozyme fitness (log ratio)": -0.736}, {"variant": "A46C G61U U106A", "polymerase ribozyme fitness (log ratio)": 0.556}, {"variant": "A46C G63U U106A G117A", "polymerase ribozyme fitness (log ratio)": -3.84}, {"variant": "A46C G69U G135U", "polymerase ribozyme fitness (log ratio)": -0.586}, {"variant": "A46C G71U U87A C123U U132A", "polymerase ribozyme fitness (log ratio)": 0.774}, {"variant": "A46C G113A G128A", "polymerase ribozyme fitness (log ratio)": -4.59}, {"variant": "A46C U54A G120U", "polymerase ribozyme fitness (log ratio)": -0.501}, {"variant": "A46C U87A G110C", "polymerase ribozyme fitness (log ratio)": -3.24}, {"variant": "A46C U112G G122U G135U", "polymerase ribozyme fitness (log ratio)": -2.04}, {"variant": "A46G", "polymerase ribozyme fitness (log ratio)": -0.119}, {"variant": "A46G A50C C85U A90G", "polymerase ribozyme fitness (log ratio)": -1.11}, {"variant": "A46G A90C C99U U106C", "polymerase ribozyme fitness (log ratio)": -4.81}, {"variant": "A46G A91C G93A", "polymerase ribozyme fitness (log ratio)": -3.21}, {"variant": "A46G A95U A105U U109A", "polymerase ribozyme fitness (log ratio)": -6.27}, {"variant": "A46G A108G G117A", "polymerase ribozyme fitness (log ratio)": -4.03}, {"variant": "A46G C49A U112C", "polymerase ribozyme fitness (log ratio)": 1.28}, {"variant": "A46G C49G G69C C104U", "polymerase ribozyme fitness (log ratio)": -3.16}]}]}
